The text below walks through data of patent US20130122568.

Common to all, as to experiment: cleavage_in_vitro
Data set [1] addresses T1, BamHI (Bacillus amyloliquefaciens) (UniProt P23940).
T1 sequence: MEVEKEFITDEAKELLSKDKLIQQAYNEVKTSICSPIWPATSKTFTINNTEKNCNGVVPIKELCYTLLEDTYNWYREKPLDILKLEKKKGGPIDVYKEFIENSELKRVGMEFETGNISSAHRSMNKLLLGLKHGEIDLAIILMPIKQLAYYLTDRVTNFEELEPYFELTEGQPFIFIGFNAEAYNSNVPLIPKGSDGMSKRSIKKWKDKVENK
The conditions noted are these: NEB3, 37 C.

The subject of data set [2] is T2, BsmBI-HF N185Y/R232A (Bacillus stearothermophilus).
T2 sequence: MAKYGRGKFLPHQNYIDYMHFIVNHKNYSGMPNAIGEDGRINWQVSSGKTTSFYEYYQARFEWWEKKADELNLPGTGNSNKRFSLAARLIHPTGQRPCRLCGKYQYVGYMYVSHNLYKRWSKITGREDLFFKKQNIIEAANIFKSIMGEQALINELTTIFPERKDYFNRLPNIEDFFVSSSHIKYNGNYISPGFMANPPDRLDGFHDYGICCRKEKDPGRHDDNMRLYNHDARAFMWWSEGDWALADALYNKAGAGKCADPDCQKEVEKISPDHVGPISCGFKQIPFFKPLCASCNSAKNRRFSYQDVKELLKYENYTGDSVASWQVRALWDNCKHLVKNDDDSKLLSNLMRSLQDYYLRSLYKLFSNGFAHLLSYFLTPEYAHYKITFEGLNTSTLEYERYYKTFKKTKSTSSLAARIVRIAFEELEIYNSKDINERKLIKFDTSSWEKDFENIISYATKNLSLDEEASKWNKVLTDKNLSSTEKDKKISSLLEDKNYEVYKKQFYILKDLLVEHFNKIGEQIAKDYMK
The conditions noted are these: NEB2, 55 C.

Another data set concerns BstXI-HF N65A. The conditions noted are these: NEB2, 55 C.
The test system of data set [3] is T3, SbfI-HF K251A (Streptomyces species Bf-61).
T3 sequence: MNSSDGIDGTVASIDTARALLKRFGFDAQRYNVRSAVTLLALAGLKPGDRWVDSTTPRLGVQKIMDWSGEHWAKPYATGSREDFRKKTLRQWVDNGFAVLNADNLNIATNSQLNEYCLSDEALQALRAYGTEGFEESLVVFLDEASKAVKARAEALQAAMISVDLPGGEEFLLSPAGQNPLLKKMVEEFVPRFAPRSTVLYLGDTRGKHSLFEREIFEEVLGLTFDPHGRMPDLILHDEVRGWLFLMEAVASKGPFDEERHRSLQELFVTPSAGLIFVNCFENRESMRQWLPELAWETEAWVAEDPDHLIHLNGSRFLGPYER
The conditions noted are these: NEB1, 37 C.

Data set [4] has as its target T4, ScaI-HF H193A/S201F (Streptomyces caespitosus) (UniProt O52691).
T4 sequence: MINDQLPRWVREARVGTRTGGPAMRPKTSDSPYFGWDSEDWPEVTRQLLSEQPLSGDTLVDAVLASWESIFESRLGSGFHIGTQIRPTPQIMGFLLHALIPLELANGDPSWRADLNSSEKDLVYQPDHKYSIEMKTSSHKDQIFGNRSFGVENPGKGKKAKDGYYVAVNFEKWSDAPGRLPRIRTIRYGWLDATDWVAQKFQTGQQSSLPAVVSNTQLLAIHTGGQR
The conditions noted are these: NEB2, 37 C.

Data set [5] has as its system T5, SphI (Streptomyces phaeochromogenes).
T5 sequence: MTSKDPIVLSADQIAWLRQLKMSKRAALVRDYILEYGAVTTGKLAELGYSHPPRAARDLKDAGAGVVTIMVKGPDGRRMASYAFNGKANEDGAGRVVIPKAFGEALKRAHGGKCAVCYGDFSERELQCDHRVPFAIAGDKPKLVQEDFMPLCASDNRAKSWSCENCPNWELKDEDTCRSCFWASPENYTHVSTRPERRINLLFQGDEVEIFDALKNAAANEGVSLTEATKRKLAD
The conditions noted are these: NEB1, 37 C.

The test system of data set [6] is T6, SspI (Sphaerotilus species).
T6 sequence: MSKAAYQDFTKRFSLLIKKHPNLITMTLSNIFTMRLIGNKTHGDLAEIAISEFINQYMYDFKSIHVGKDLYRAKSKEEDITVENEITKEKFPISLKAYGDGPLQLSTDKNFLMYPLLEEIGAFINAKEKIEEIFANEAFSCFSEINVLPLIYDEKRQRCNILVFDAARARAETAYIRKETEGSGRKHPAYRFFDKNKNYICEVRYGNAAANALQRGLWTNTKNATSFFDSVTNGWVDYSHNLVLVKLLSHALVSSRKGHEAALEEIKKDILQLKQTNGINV
The conditions noted are these: NEB1, 37 C.

Some results are limits rather than exact numbers.

Take lambda phage DNA: the activity (fidelity index) in data set [1] was 32; in data set [2], greater than 500; in the data set with BstXI-HF N65A, greater than 250; in data set [3], 1000; in data set [4] it was 1000; in data set [5] it was 64. Further, in data set [6], the activity (fidelity index) turned out to be 64.
